The series is described as follows: soluble on expression in E. coli; label from the status in PepcDB or PDB records.
As for “MSLKIDIHPLTHDPTSAWKELSKSQRVIKINTKPPAVDVPSNKVRVVCMSDTHSLTHHIKFDIPDGDIFIHAGDFTRCGKLDEVVDFNEWLKKLPHKHKLVIAGNHELSFDHTFTHPFQNASACCKKTGSTLLDEIPTLGNSKESLAEAVKTENIRQYLSSCTYLQDECVELYGLKIYGTPWQPEFCKWAFNVKRGQACLEKWEQIPENVDILVTHTPPVGHGDLCCSGVRAGCVELLATVQQRVKPKYHVFGHVHEGYGITSDGRIIFVNASTCDINYLPNNQPIVFDVTLPKGRTKDEGHHHHHH”, the “soluble on expression in E. coli” value was “soluble”. Turning to “MRRGMTGLKTLAQQIALIWKNDPQQFESQAVAVMDAVKNRMPGRAKINVDVFSKLELSLRTSFDLQDGGFSGSPKFFNTPALNYLLERFYETGNEEILNFIGLTLKTISIRGIHDLVNGGFFRYSTDTMWIVPHFEKMLYTQTQLMKLFSKMFMLTRDNVYRDMIYDIKRFMDENLYWPGHGYYSGMDADVDGNEGGYYKWSFQDLKVALGQDFEAFRAIFDISEGGNYMDELYGQTGDNLIYFTGSFDEYRRSIEENGSTDMLSRSIEKLREAEKKRKKPSVDKKILTDLNGLAISSLSWAYRATGDKEFLDSAVSVSEFIIKNMIGDYLLHSFFEGSASVKSSLFDYAFLIRGLIDLYTITFDQKYLEEAKKLADEAIKFLFDGKFKLSEEIDDPQIADSEVESPYATIVADLDDLSLLTEDLQYHQIADQALTSVFDAVSRFPSAFPSLEHHHHHH”, the “soluble on expression in E. coli” value is reported as “not soluble”.

Consider “MGSDKIHHHHHHMLRSMYSGISGLKNFQTKLDVVGNNIANVNTFGYKKGRVTFKDLVSQSVGSASGNGGGVGGANPKQVGLGASMATVDSVSNQGALQNTGRTLDVAISGEGFFQIQTADGIRYARSGNFYTDLDGNLVTGDGNYVIGSDNAGPLGQPTIPLGGGYKTINIPANAQNLSIGKDGLVTYVDPAGTLQQAGYISLANFPNPGGLEKSGSNMYSISQNSGQPTSATPSTNGLGQLTSGTLEMSNVDLSEEFTEMIIAQRGFQANTRIITTSDQILEELVNLKR”, for which the “soluble on expression in E. coli” value is “not soluble”.

Turning to “GSHMRKTLVLLGAHGVGRRHIKNTLITKHPDRFAYPIPHTTRPPKKDEENGKNYYFVSHDQMMQDISNNEYLEYGSHEDAMYGTKLETIRKIHEQGLIAILDVEPQALKVLRTAEFAPFVVFIAAPTITPGLNEDESLQRLQKESDILQRTYAHYFDLTIINNEIDETIRHLEEAVELVC”, the “soluble on expression in E. coli” value is reported as “soluble”.

For “MAHHHHHHMGGPPRKREREGEALKPKSKEEQLPIKNECTLDRREGKQIVAEKWSEVVVDDNESQERSNESVSESQVYDTEEELLAAGEDLSGDALKDFLRKNFVDFIDEKVARVGDLDLMN”, the “soluble on expression in E. coli” value is reported as “not soluble”. As for “MKLMQIRKPLLKSSLLDQNLTEEEVNMKFVQDLLNWVDEMQVQLDRTEWGSDLPSVESHLENHKNVHRAIEEFESSLKEAKISEIQMTAPLKLSYTDKLHRLESQYAKLLNTSRNQERHLDTLHNFVTRATNELIWLNEKEESEVAYDWSERNSSVARKKSYHAELMRELEQKEESIKAVQEIAEQLLLENHPARLTIEAYRAAMQTQWSWILQLCQCVEQHIQE”, the entry is “soluble”. The value for “MSLAEFIYTMRKVRKAHGDKVILDDVNLNFLPGAKIGVVGPNGAGKSSVLRIMAGLDTPNNGDAYLAPGASVGILQQEPHLDETKTVRENVEEGVPIKGKLNRYNEVAELMATDYSDELMEEMGRLQEELDAADAWDIDSQLEQAMDALRCPPPDEPVTHLSGGERRRVALCKLLLSKPDLLLLDEPTNHLDAESVLWLEQHLASYKGAILAVTHDRYFLDNVAEWILELDRGRAYPYEGNYSTYLEKKAERLEVQGKKDQKLQKRLKEELAWVRSGAKARQAKNKARLGRYEEMAAEAEKSRKLDFEEIQIPTPPRLGNVVVEVEHLDKGFEGRTLIKDLSFTLPRNGIVGVIGPNGVGKTTLFKTIVGLEQPDSGVVRVGDTVKLSYVDQNRAGIDPKKNVWEVVSDGLDYIEVGQNEIPSRAYVSAFGFKGPDQQKPAGVLSGGERNRLNLALTLKEGGNLILLDEPTNDLDVETLSSLEHALEQFPGCAVVISHDRWFLDRTCTHILAWEGDDDNEAKWFWFEGEGHHHHHH” was “soluble”; that for “MALTSVSVYELSRLGPPQQPVRRRSNSTKVRRKDAELGSVDRKRNPKRNQIQPQHNESITITYMGRPRSPSVDLPTSPPIPSVIRQRRSSSTVAKKLPQSASNPSFLRKQGSSSSLSNGLWTDCIEVVNEIGVMAKMESRKIRRLRMAVYRRVRISDDEEMVLTASRALSKCHGWTLDTCHDYLPVIIDNIISMDTSNRIIAAEGLAAIADSLGERLVKFAGMNSHRIGVDIAAEERSEKAKACIQLLRSVVRKRDWYYRHLDVESIDRLDATMERLKSI” was “not soluble”. As for “MTQANLSETLFKPRFKHPETSTLVRRFNHGAQPPVQSALDGKTIPHWYRMINRLMWIWRGIDPREILDVQARIVMSDAERTDDDLYDTVIGYRGGNWIYEWATQAMVWQQKACTEEDPQLSGRHWLHAATLYNIAAYPHLKGDDLAEQAQALSNRAYEEAAQRLPGTMRQMEFTVPGGAPITGFLHMPKGDGPFPTVLMCGGLDAMQTDYYSLYERYFAPRGIAMLTIDMPSVGFSSKWKLTQDSSLLHQHVLKALPNVPWVDHTRVAAFGFRFGANVAVRLAYLESPRLKAVACLGPVVHTLLSDFKCQQQVPEMYLDVLASRLGMHDASDEALRVELNRYSLKVQGLLGRRCPTPMLSGYWKNDPFSPEEDSRLITSSSADGKLLEIPFNPVYRNFDKGLQEITGWIEKRLC”, the entry is “not soluble”; as for “MSLEAILPVPEEKQVDWQKMETYAFVHFGLNTFNDREWGYGDSEPKTFNPTKLDCEQWVKTFVESGMKGVILTAKHHDGFCLWPTQLTEYCIRNTPYKDGKGDIVGELAAACKKYGIKFAVYLSPWDRHQANYGTPEYVDYFHKQLTELMTNYGEVFEVWFDGANGGDGWYGGAKDSRTIDRKTYYNYPRIYEILDKLQPQAIVFSDGGPGCRWVGNENGFAGATNWSFLRAGEVYPGYPKYRELQYGHADGNQWVPAECDVSIRPGWFYHPEEDDRVKTVEQLTDLYYRSVGHNATLLLNFPVDRDGLIHPIDSANAVNFHKNVQKQLAHNLLAGIRPKASDERGGQFSAKAATDESWDTYWATNDGVTAADIEFDFPKTEKVNRMMIQEYIPLGQRVKSFIVEYDKDGKWLPVKLNEETTTVGYKRLLRFETVSTDKLRIRFTDARACLCINNIEAYYAGETADTFTVEAKELKSYPFTLVGVPEEETKKCMDKDKNTTAFVEGDALVIDLGEERTITSFHYLPDQSEYNKGLISSYELSVGTEANAVNRIVAQGEFSNIKNNPILQSVYFTPVKARYLSLKPTKMVTEGETMGFAEIGIQEGHHHHHH”, “soluble”.

Regarding “MGSSHHHHHHSSGLVPRGSHMKGDKRRDIRDILLHDETLFRNMNAFDPDYVPENYRYRESQMEALAVCIRPALRNGRPVNAVILGSCATGKTTAIKKIFEMVESTSEGVVCCYINCQLHTTRFGIFSQIYSKIFGHQPPETGVPFSRIYQTIMQHLASEKRALVVALDDINHLFYSKNANKVLYDILRAHEVFEGVRTGVFAVLSDIEFRYALDKNVDSIFIPQEIVFPPYTREEVFNILRDRVRVGFYPGVISDELLERITDHTMDTGDLRYGIDLLRVCGNLAEADASPVIGEEHLERALKSTGPVNLIHTVRTLNENEREFLRILADAGEDMTAGALYELFRESTGSSYSSFNRIIEKLEFLRLIDTRLTGKGVRGNSRILIPRFSREDLRRCPGF”, the “soluble on expression in E. coli” value is listed as “soluble”.

As to “DIGCYTLGIQSGTVETTLCMGSSISIASGLYHAGEKRPICCSIGDSTFFHTGMNSLLNAVFNKANITVTILDNRITAMTGHQPNPGVGFTVTGEPTVEVSLAELCKAMGAGFVTVVDPYNLEETQEAFKAAKEFEGTAVVIAKQPCVISGKRAGI”, the “soluble on expression in E. coli” value is listed as “not soluble”.

As for “MGSDKIHHHHHHMWQDILNIHPDCIEDFINFDKLPGQAASLIAFAGMSYLQTEYKIGKTGKGNICLNNENNSGHVHYLISTHAGEGKIKLGNNEYLVKPGSIVLLPAGTPFLYELSGEYWEMCWLLLHDCSEYKFVHQLHPSVYSSINAERLYQTMSLIREFQHGESIYQSDIILRLVEVLVYQIAQTLNMGQQLTKQQQKFHSLIRRVNKQLQLSWTVKQLAAEMHMSEPHFFRLCKKEMGMTPIKLLTHTRLEYACYLLRYTQYNLDQIADTVGYGDSASFAHRFKKDYGLSPGRWRKEQINNFQSNDIENGEKR”, the “soluble on expression in E. coli” value is given as “not soluble”.

On to “MSLKISDGNWLIQPGLNLIHPLQVFEVEQQDNEMVVYAAPRDVRERTWQLDTPLFTLRFFSPQEGIVGVRIEHFQGALNNGPHYPLNILQDVKVTIENTERYAEFKSGNLSARVSKGEFWSLDFLRNGERITGSQVKNNGYVQDTNNQRNYMFERLDLGVGETVYGLGERFTALVRNGQTVETWNRDGGTSTEQAYKNIPFYMTNRGYGVLVNHPQCVSFEVGSEKVSKVQFSVESEYLEYFVIDGPTPKAVLDRYTRFTGRPALPPAWSFGLWLTTSFTTNYDEATVNSFIDGMAERNLPLHVFHFDCFWMKAFQWCDFEWDPLTFPDPEGMIRRLKAKGLKICVWINPYIGQKSPVFKELQEKGYLLKRPDGSLWQWDKWQPGLAIYDFTNPDACKWYADKLKGLVAMGVDCFKTDFGERIPTDVQWFDGSDPQKMHNHYAYIYNELVWNVLKDTVGEEEAVLFARSASVGAQKFPVHWGGDCYANYESMAESLRGGLSIGLSGFGFWSHDIGGFENTAPAHVYKRWCAFGLLSSHSRLHGSKSYRVPWAYDDESCDVVRFFTQLKCRMMPYLYREAARANARGTPMMRAMMMEFPDDPACDYLDRQYMLGDNVMVAPVFTEAGDVQFYLPEGRWTHLWHNDELDGSRWHKQQHGFLSLPVYVRDNTLLALGNNDQRPNYVWHEGTAFHLFNLQDGHEAVCEVPAADGSVIFTLKAARTGNTITVTGAGEAKNWTLCLRNVVKVNGLQDGSQAESEQGLVVKPQGNALTITLEGGSHHHHHH”, for which the “soluble on expression in E. coli” value is on record as “soluble”. As for “MAQRNLDYRLLKDRRNEYGVSQNKLAIACGLSRTYLNLIENGGVTASTKTMRKIFDQLESFNPDLPLTLLFDYVRIRFSTTDVRKIIQELLHLKFEYMLHEDYAFYSYQEQYVMGDIVVMLSHEEDKGVLLELKGRGCRQFETFLLAQKRSWYDFFEDCLKTGGVMKRLDLAINDRVGLLDISDLTKKCQKEECISLFRTFKSYRSGELLKADEKDGMGNTLYIGSLKSEVYFCLYEKDYEQYIKLGIPLDQTETKNRFEIRLKNDRAYHAIQDLLKGRSIESTTFSIINRYLRFADKVEGKRRTNWPLNEQWGRFIGRNRKEIQLTSEPKPYTIERTLNWLGRQVAPTWKMAKELDRLNQTTYIQDMVRNARLSDQHKKILEQQSMAIENLIV”, the “soluble on expression in E. coli” value is reported as “not soluble”. For “MHRRSIINHSRPDKLKRGMHVEIASNVINDLQFFDQQIRWAKADLVQQVSRNRLNRARTYRGYLNQCLPHELVADIQRAVIKSINAISLINLEHHHHHH”, the “soluble on expression in E. coli” value is “not soluble”. On to “VVTRIVILGGGPAGYEAALVAATSHPETTQVTVIDCDGIGGAAVLDDCVPSKTFIASTGLRTELRRAPHLGFHIDFDDAKISLPQIHARVKTLAAAQSADITAQLLSMGVQVIAGRGELIDSTPGLARHRIKATAADGSTSEHEADVVLVATGASPRILPSAQPDGERILTWRQLYDLDALPDHLIVVGSGVTGAEFVDAYTELGVPVTVVASQDHVLPYEDADAALVLEESFAERGVRLFKNARAASVTRTGAGVLVTMTDGRTVEGSHALMTIGSVPNTSGLGLERVGIQLGRGNYLTVDRVSRTLATGIYAAGDCTGLLPLASVAAMQGRIAMYHALGEGVSPIRLRTVAATVFTRPEIAAVGVPQSVIDAGSVAARTIMLPLRTNARAKMSEMRHGFVKIFCRRSTGVVIGGVVVAPIASELILPIAVAVQNRITVNELAQTLAVYPSLSGSITEAARRLMAHDDLDCTAAQDAAEQLALVPHHLPTSN”, for which the “soluble on expression in E. coli” value was “soluble”.

The record behind these values is the DeepSol protein solubility set.
